{
  "source": "paper PMC10450190",
  "about": "“RIG-I recognizes metabolite-capped RNAs as signaling ligands”",
  "molecular_target": "T1, RIG-I (UniProt O95786 1-925)",
  "T1 sequence": "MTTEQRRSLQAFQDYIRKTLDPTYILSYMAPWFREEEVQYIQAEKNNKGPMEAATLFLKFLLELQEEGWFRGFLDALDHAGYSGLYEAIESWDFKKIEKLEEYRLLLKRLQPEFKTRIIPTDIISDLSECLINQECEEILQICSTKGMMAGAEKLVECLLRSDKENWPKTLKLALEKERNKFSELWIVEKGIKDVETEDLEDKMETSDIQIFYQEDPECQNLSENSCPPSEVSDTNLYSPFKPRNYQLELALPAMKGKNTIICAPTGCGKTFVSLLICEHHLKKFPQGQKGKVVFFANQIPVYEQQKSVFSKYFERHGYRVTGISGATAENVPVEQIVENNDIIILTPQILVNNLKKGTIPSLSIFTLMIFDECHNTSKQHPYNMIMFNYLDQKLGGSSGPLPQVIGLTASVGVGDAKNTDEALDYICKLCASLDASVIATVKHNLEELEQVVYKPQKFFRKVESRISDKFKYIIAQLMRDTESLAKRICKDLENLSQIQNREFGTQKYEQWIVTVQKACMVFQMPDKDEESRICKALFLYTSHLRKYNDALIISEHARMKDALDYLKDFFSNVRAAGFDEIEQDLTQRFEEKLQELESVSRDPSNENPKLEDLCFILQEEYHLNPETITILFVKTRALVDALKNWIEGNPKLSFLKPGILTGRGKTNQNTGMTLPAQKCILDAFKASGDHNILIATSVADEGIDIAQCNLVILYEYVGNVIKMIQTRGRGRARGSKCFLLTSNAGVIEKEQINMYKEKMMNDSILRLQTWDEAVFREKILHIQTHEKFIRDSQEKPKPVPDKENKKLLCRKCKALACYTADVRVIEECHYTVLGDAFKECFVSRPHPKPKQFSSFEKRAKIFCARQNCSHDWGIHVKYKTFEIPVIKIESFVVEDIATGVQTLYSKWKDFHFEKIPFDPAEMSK",
  "assay": "competition (fluorescence polarization); 0.5 mM ATP; vs labeled 5' PPP ds39; 50 mM MOPS pH 7.4, 5 mM DTT, 5 mM MgCl2, 0.01% Tween20; 25 C (ATPase, 2 mM ATP; FP, 0.5 mM ATP); EMSA 4 C with 2 mM ATP, 75 nM RIG-I, 25 nM RNA",
  "conditions": "protein: recombinant; tags: none (6xHis-SUMO removed by Ulp1); label: none; single-stranded",
  "data": [
    {"binder": "AGUUGGUGGUUGUUGUGUGUUUGUGGUUGGUUUGUUUGG (ssRNA, 5' triphosphate)", "note": "[5' PPP ss39]", "values": [
      {"measurement": "binding result", "result": "no binding"}
    ]},
    {"binder": "AGUUGGUGGUUGUUGUGUGUUUGUGGUUGGUUUGUUUGG (ssRNA, 5' NAD+ cap)", "note": "[5' NAD+ ss39]", "values": [
      {"measurement": "binding result", "result": "no binding"}
    ]}
  ]
}
